# Laboratory results as given in the supplement of paper PMC5998384.
# Columns and labels:
# HeLa Kyoto [1] = test: solubility change mitosis vs G1/S (difference of NP-40 vs SDS log2 ratios) (log2 ratio difference); higher = more soluble in mitosis
# HeLa Kyoto [2] = test: solubility in G1/S (NP-40 vs SDS abundance) (log2 ratio); higher = more soluble; conditions: cell cycle stage: G1/S
# 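Throughout, for solubility change mitosis vs G1/S (difference of NP-40 vs SDS log2 ratios): synchronized HeLa Kyoto cells (double thymidine block for G1/S, nocodazole release for mitosis), protein amounts in NP-40 versus SDS lysates quantified by mass spectrometry, three biological replicates.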
# 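Throughout, for solubility in G1/S (NP-40 vs SDS abundance): HeLa Kyoto cells arrested at G1/S by double thymidine block, proteins quantified by TMT10plex mass spectrometry in mild NP-40 versus SDS extracts, three biological replicates.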
Sequence,solubility change mitosis (log2) (HeLa Kyoto [1]),solubility in G1/S (log2) (HeLa Kyoto [2])
MPKIVLNGVTVDFPFQPYKCQQEYMTKVLECLQQKVNGILESPTGTGKTLCLLCTTLAWREHLRDGISARKIAERAQGELFPDRALSSWGNAAAAAGDPIACYTDIPKIIYASRTHSQLTQVINELRNTSYRPKVCVLGSREQLCIHPEVKKQESNHLQIHLCRKKVASRSCHFYNNVEEKSLEQELASPILDIEDLVKSGSKHRVCPYYLSRNLKQQADIIFMPYNYLLDAKSRRAHNIDLKGTVVIFDEAHNVEKMCEESASFDLTPHDLASGLDVIDQVLEEQTKAAQQGEPHPEFSADSPSPGLNMELEDIAKLKMILLRLEGAIDAVELPGDDSGVTKPGSYIFELFAEAQITFQTKGCILDSLDQIIQHLAGRAGVFTNTAGLQKLADIIQIVFSVDPSEGSPGSPAGLGALQSYKVHIHPDAGHRRTAQRSDAWSTTAARKRGKVLSYWCFSPGHSMHELVRQGVRSLILTSGTLAPVSSFALEMQIPFPVCLENPHIIDKHQIWVGVVPRGPDGAQLSSAFDRRFSEECLSSLGKALGNIARVVPYGLLIFFPSYPVMEKSLEFWRARDLARKMEALKPLFVEPRSKGSFSETISAYYARVAAPGSTGATFLAVCRGKASEGLDFSDTNGRGVIVTGLPYPPRMDPRVVLKMQFLDEMKGQGGAGGQFLSGQEWYRQQASRAVNQAIGRVIRHRQDYGAVFLCDHRFAFADARAQLPSWVRPHVRVYDNFGHVIRDVAQFFRVAERTMPAPAPRATAPSVRGEDAVSEAKSPGPFFSTRKAKSLDLHVPSLKQRSSGSPAAGDPESSLCVEYEQEPVPARQRPRGLLAALEHSEQRAGSPGEEQAHSCSTLSLLSEKRPAEEPRGGRKKIRLVSHPEEPVAGAQTDRAKLFMVAVKQELSQANFATFTQALQDYKGSDDFAALAACLGPLFAEDPKKHNLLQGFYQFVRPHHKQQFEEVCIQLTGRGCGYRPEHSIPRRQRAQPVLDPTGRTAPDPKLTVSTAAAQQLDPQEHLNQGRPHLSPRPPPTGDPGSQPQWGSGVPRAGKQGQHAVSAYLADARRALGSAGCSQLLAALTAYKQDDDLDKVLAVLAALTTAKPEDFPLLHRFSMFVRPHHKQRFSQTCTDLTGRPYPGMEPPGPQEERLAVPPVLTHRAPQPGPSRSEKTGKTQSKISSFLRQRPAGTVGAGGEDAGPSQSSGPPHGPAASEWGL [RTEL1],-0.104,-0.0713
MPPQLQETRMNRSIPVEVDESEPYPSQLLKPIPEYSPEEESEPPAPNIRNMAPNSLSAPTMLHNSSGDFSQAHSTLKLANHQRPVSRQVTCLRTQVLEDSEDSFCRRHPGLGKAFPSGCSAVSEPASESVVGALPAEHQFSFMEKRNQWLVSQLSAASPDTGHDSDKSDQSLPNASADSLGGSQEMVQRPQPHRNRAGLDLPTIDTGYDSQPQDVLGIRQLERPLPLTSVCYPQDLPRPLRSREFPQFEPQRYPACAQMLPPNLSPHAPWNYHYHCPGSPDHQVPYGHDYPRAAYQQVIQPALPGQPLPGASVRGLHPVQKVILNYPSPWDHEERPAQRDCSFPGLPRHQDQPHHQPPNRAGAPGESLECPAELRPQVPQPPSPAAVPRPPSNPPARGTLKTSNLPEELRKVFITYSMDTAMEVVKFVNFLLVNGFQTAIDIFEDRIRGIDIIKWMERYLRDKTVMIIVAISPKYKQDVEGAESQLDEDEHGLHTKYIHRMMQIEFIKQGSMNFRFIPVLFPNAKKEHVPTWLQNTHVYSWPKNKKNILLRLLREEEYVAPPRGPLPTLQVVPL [TRAF3IP2],0.168,-0.199
MPVHSRGDKKETNHHDEMEVDYAENEGSSSEDEDTESSSVSEDGDSSEMDDEDCERRRMECLDEMSNLEKQFTDLKDQLYKERLSQVDAKLQEVIAGKAPEYLEPLATLQENMQIRTKVAGIYRELCLESVKNKYECEIQASRQHCESEKLLLYDTVQSELEEKIRRLEEDRHSIDITSELWNDELQSRKKRKDPFSPDKKKPVVVSGPYIVYMLQDLDILEDWTTIRKAMATLGPHRVKTEPPVKLEKHLHSARSEEGRLYYDGEWYIRGQTICIDKKDECPTSAVITTINHDEVWFKRPDGSKSKLYISQLQKGKYSIKHS [BRMS1L],-0.0561,-0.0165
MQVPQDGEDLAGQPWYHGLLSRQKAEALLQQNGDFLVRASGSRGGNPVISCRWRGSALHFEVFRVALRPRPGRPTALFQLEDEQFPSIPALVHSYMTGRRPLSQATGAVVSRPVTWQGPLRRSFSEDTLMDGPARIEPLRARKWSNSQPADLAHMGRSREDPAGMEASTMPISALPRTSSDPVLLKAPAPLGTVADSLRASDGQLQAKAPTKPPRTPSFELPDASERPPTYCELVPRVPSVQGTSPSQSCPEPEAPWWEAEEDEEEENRCFTRPQAEISFCPHDAPSCLLGPQNRPLEPQVLHTLRGLFLEHHPGSTALHLLLVDCQATGLLGVTRDQRGNMGVSSGLELLTLPHGHHLRLELLERHQTLALAGALAVLGCSGPLEERAAALRGLVELALALRPGAAGDLPGLAAVMGALLMPQVSRLEHTWRQLRRSHTEAALAFEQELKPLMRALDEGAGPCDPGEVALPHVAPMVRLLEGEEVAGPLDESCERLLRTLHGARHMVRDAPKFRKVAAQRLRGFRPNPELREALTTGFVRRLLWGSRGAGAPRAERFEKFQRVLGVLSQRLEPDR [SH2D3A],0.0323,0.386
MRDADADAGGGADGGDGRGGHSCRGGVDTAAAPAGGAPPAHAPGPGRDAASAARGSRMRPHIFTLSVPFPTPLEAEIAHGSLAPDAEPHQRVVGKDLTVSGRILVVRWKAEDCRLLRISVINFLDQLSLVVRTMQRFGPPVSR [LAGE3],0.0284,0.0355
MRPLDIVELAEPEEVEVLEPEEDFEQFLLPVINEMREDIASLTREHGRAYLRNRSKLWEMDNMLIQIKTQVEASEESALNHLQNPGDAAEGRAAKRCEKAEEKAKEIAKMAEMLVELVRRIEKSESS [MRFAP1],0.549,0.156
MRPWTGSWRWIMLILFAWGTLLFYIGGHLVRDNDHPDHSSRELSKILAKLERLKQQNEDLRRMAESLRIPEGPIDQGPAIGRVRVLEEQLVKAKEQIENYKKQTRNGLGKDHEILRRRIENGAKELWFFLQSELKKLKNLEGNELQRHADEFLLDLGHHERSIMTDLYYLSQTDGAGDWREKEAKDLTELVQRRITYLQNPKDCSKAKKLVCNINKGCGYGCQLHHVVYCFMIAYGTQRTLILESQNWRYATGGWETVFRPVSETCTDRSGISTGHWSGEVKDKNVQVVELPIVDSLHPRPPYLPLAVPEDLADRLVRVHGDPAVWWVSQFVKYLIRPQPWLEKEIEEATKKLGFKHPVIGVHVRRTDKVGTEAAFHPIEEYMVHVEEHFQLLARRMQVDKKRVYLATDDPSLLKEAKTKYPNYEFISDNSISWSAGLHNRYTENSLRGVILDIHFLSQADFLVCTFSSQVCRVAYEIMQTLHPDASANFHSLDDIYYFGGQNAHNQIAIYAHQPRTADEIPMEPGDIIGVAGNHWDGYSKGVNRKLGRTGLYPSYKVREKIETVKYPTYPEAEK [FUT8],-0.0307,-0.188
MRRAELAGLKTMAWVPAESAVEELMPRLLPVEPCDLTEGFDPSVPPRTPQEYLRRVQIEAAQCPDVVVAQIDPKKLKRKQSVNISLSGCQPAPEGYSPTLQWQQQQVAQFSTVRQNVNKHRSHWKSQQLDSNVTMPKSEDEEGWKKFCLGEKLCADGAVGPATNESPGIDYVQIGFPPLLSIVSRMNQATVTSVLEYLSNWFGERDFTPELGRWLYALLACLEKPLLPEAHSLIRQLARRCSEVRLLVDSKDDERVPALNLLICLVSRYFDQRDLADEPS [GEMIN2],0.437,0.59
MRRDERDAKAMRSLQPPDGAGSPPESLRNGYVKSCVSPLRQDPPRGFFFHLCRFCNVELRPPPASPQQPRRCSPFCRARLSLGALAAFVLALLLGAEPESWAAGAAWLRTLLSVCSHSLSPLFSIACAFFFLTCFLTRTKRGPGPGRSCGSWWLLALPACCYLGDFLVWQWWSWPWGDGDAGSAAPHTPPEAAAGRLLLVLSCVGLLLTLAHPLRLRHCVLVLLLASFVWWVSFTSLGSLPSALRPLLSGLVGGAGCLLALGLDHFFQIREAPLHPRLSSAAEEKVPVIRPRRRSSCVSLGETAASYYGSCKIFRRPSLPCISREQMILWDWDLKQWYKPHYQNSGGGNGVDLSVLNEARNMVSDLLTDPSLPPQVISSLRSISSLMGAFSGSCRPKINPLTPFPGFYPCSEIEDPAEKGDRKLNKGLNRNSLPTPQLRRSSGTSGLLPVEQSSRWDRNNGKRPHQEFGISSQGCYLNGPFNSNLLTIPKQRSSSVSLTHHVGLRRAGVLSSLSPVNSSNHGPVSTGSLTNRSPIEFPDTADFLNKPSVILQRSLGNAPNTPDFYQQLRNSDSNLCNSCGHQMLKYVSTSESDGTDCCSGKSGEEENIFSKESFKLMETQQEEETEKKDSRKLFQEGDKWLTEEAQSEQQTNIEQEVSLDLILVEEYDSLIEKMSNWNFPIFELVEKMGEKSGRILSQVMYTLFQDTGLLEIFKIPTQQFMNYFRALENGYRDIPYHNRIHATDVLHAVWYLTTRPVPGLQQIHNGCGTGNETDSDGRINHGRIAYISSKSCSNPDESYGCLSSNIPALELMALYVAAAMHDYDHPGRTNAFLVATNAPQAVLYNDRSVLENHHAASAWNLYLSRPEYNFLLHLDHVEFKRFRFLVIEAILATDLKKHFDFLAEFNAKANDVNSNGIEWSNENDRLLVCQVCIKLADINGPAKVRDLHLKWTEGIVNEFYEQGDEEANLGLPISPFMDRSSPQLAKLQESFITHIVGPLCNSYDAAGLLPGQWLEAEEDNDTESGDDEDGEELDTEDEEMENNLNPKPPRRKSRRRIFCQLMHHLTENHKIWKEIVEEEEKCKADGNKLQVENSSLPQADEIQVIEEADEEE [PDE3B],-0.0328,-0.122
MRRDVNGVTKSRFEMFSNSDEAVINKKLPKELLLRIFSFLDVVTLCRCAQVSRAWNVLALDGSNWQRIDLFDFQRDIEGRVVENISKRCGGFLRKLSLRGCLGVGDNALRTFAQNCRNIEVLNLNGCTKTTDATCTSLSKFCSKLRHLDLASCTSITNMSLKALSEGCPLLEQLNISWCDQVTKDGIQALVRGCGGLKALFLKGCTQLEDEALKYIGAHCPELVTLNLQTCLQITDEGLITICRGCHKLQSLCASGCSNITDAILNALGQNCPRLRILEVARCSQLTDVGFTTLARNCHELEKMDLEECVQITDSTLIQLSIHCPRLQVLSLSHCELITDDGIRHLGNGACAHDQLEVIELDNCPLITDASLEHLKSCHSLERIELYDCQQITRAGIKRLRTHLPNIKVHAYFAPVTPPPSVGGSRQRFCRCCIIL [FBXL20],-0.0226,-0.0856
